Source: publication PMC7060239

Biological target: human DNMT1 RFTS domain, residues 351–600 (human) (UniProt P26358)
Experiment: ITC; hRFTS and ubiquitylated hPAF15_(2-30) analogs; VP-ITC; 10 mM HEPES-NaOH (pH 7.5), 150 mM NaCl, 10 μM zinc acetate; one-site model; c value 10,000 for hPAF15_(2-30)Ub2

Chain of human DNMT1 RFTS domain, residues 351–600 (human) (P26358 351-600): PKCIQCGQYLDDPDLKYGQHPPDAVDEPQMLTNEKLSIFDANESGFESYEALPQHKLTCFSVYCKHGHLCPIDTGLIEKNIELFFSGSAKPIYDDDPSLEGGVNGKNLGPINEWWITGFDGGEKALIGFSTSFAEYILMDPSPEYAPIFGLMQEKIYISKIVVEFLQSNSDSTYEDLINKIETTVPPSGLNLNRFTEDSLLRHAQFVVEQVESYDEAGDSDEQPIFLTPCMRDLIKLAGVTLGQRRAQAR

Kd | stoichiometry N | Substance
1200 nM | – | hPAF15_(2-30)K15Ub, disulfide-linked mono-ubiquitylated analog (from UniProt Q15004 2-30)
1.4 nM | 1 | hPAF15_(2-30)Ub2, disulfide-linked dual mono-ubiquitylated analog of human PAF15 (residues 2–30) (from UniProt Q15004 2-30)
